Test [1] has as its target Recombinant human FGFR4-Fc (R&D Systems Cat # 685-FR) (human) (UniProt P22455). As to the kind of experiment: competition ELISA: FGFR4-Fc preincubated with soluble FGF1, binding to immobilized FGF2-heparin. On the technique in general: In an ELISA, binding on a coated surface is turned into a signal by an enzyme label.
For test [2] the target is unchanged. As to the kind of experiment: competition ELISA: FGFR4-Fc preincubated with soluble FGF2, binding to immobilized FGF2-heparin.

Turning to “FGF1 (soluble) (from UniProt P05230 16-155) (ligand)”, in test [1], the concentration for half-maximal inhibition (IC50) is 0.733 nM.

With “recombinant human FGF2 (R&D Systems, Cat# 233-FB) (from UniProt P09038 143-288) (ligand)”, the IC50 in test [2] was found to be 0.691 nM.

The IC50 is the concentration that inhibits the measured activity by half.

The record behind these values is US20110212091A1.
